Columns and labels:
[1] = target: T1, synthetic acceptor peptide Arg-Ser-Pro-Pro-Pro (RSPPP)
T1 sequence (peptide): RSPPP

[2] = target: synthetic acceptor peptide Pro-Pro-Ala-D-Ser-Thr-D-Ser-Ala-Pro-Gly (PPAdSTdSAPG)
[3] = target: T2, synthetic acceptor peptide Arg-Thr-Pro-Pro-Pro (RTPPP)
T2 sequence (peptide): RTPPP

[4] = target: T3, subtilisin, native (Bacillus amyloliquefaciens (Bacillus velezensis)) (UniProt P00782)
T3 sequence: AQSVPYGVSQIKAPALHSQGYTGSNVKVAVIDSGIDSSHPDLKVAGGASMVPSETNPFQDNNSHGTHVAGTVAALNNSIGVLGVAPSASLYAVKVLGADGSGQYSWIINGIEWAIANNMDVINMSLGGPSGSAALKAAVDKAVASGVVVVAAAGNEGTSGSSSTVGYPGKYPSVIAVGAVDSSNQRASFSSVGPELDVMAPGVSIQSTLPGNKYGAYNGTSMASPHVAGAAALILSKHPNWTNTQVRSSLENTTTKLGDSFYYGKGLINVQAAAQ

[5] = target: T4, subtilisin, reduced and carboxymethylated (Bacillus amyloliquefaciens (Bacillus velezensis)) (UniProt P00782)
T4 sequence (chain, reduced and carboxymethylated): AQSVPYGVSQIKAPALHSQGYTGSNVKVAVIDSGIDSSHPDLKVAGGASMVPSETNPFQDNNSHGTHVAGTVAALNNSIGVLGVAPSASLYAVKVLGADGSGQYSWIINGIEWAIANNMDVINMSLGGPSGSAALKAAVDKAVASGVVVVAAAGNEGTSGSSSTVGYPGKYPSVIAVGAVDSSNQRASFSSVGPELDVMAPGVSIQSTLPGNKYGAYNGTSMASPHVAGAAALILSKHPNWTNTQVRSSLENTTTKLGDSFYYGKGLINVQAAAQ

[6] = target: bovine cytochrome C, native (bovine) (UniProt P62894)
[7] = target: T5, bovine rhodanese, reduced and carboxymethylated (bovine) (UniProt P00586)
T5 sequence (chain, reduced and carboxymethylated): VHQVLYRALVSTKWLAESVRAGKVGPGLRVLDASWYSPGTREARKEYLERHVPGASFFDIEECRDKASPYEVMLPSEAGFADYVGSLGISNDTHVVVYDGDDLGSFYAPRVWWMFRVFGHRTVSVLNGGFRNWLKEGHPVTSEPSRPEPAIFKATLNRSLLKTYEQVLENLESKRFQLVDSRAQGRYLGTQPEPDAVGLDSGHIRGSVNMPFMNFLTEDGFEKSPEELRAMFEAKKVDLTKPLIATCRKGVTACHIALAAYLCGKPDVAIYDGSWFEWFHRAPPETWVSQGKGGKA

[8] = target: T6, bovine rhodanese, native (bovine) (UniProt P00586)
T6 sequence: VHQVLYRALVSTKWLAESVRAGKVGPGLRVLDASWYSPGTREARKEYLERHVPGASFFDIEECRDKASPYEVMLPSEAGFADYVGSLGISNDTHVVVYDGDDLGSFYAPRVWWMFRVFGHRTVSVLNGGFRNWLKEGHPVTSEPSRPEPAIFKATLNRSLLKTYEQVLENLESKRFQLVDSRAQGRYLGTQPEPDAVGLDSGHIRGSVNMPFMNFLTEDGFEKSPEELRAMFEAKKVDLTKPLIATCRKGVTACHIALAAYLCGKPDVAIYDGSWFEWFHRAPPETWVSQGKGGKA

[9] = target: bovine cytochrome C, reduced and carboxymethylated (bovine) (UniProt P62894)
[10] = target: T1, synthetic acceptor peptide Arg-Ser-Pro-Pro-Pro (RSPPP); remark: listed apart in the source
[11] = target: synthetic acceptor peptide Pro-Pro-Ala-D-Ser-Thr-D-Ser-Ala-Pro-Gly (PPAdSTdSAPG); remark: listed apart in the source

B1: UDP-GalNAc:polypeptide N-acetylgalactosaminyltransferase purified from bovine colostrum (enzyme)
chain: GLPAGDVLEPVQKPHEGPGEMGKPVVIPKEDQEKMKEMFKINQFNLMASEMIALNRSLPDVRLEGCKTKVYPDNLPTTSVVIVFHNEAWSTLLRTVHSVINRSPRHMLEEIVLVDDASERDFLKRPLESYVKKLKVPVHVIRMEQRSGLIRARLKGAAVSKGQVITFLDAHCECTVGWLEPLLARIKHDRKTVVCPIIDVISDDTFEYMAGSDMTYGGFNWKLNFRWYPVPQREMDRRKGDRTLPVRTPTMAGGLFSIDRDYFQEIGTYDAGMDIWGGENLEISFRIWQCGGTLEIVTCSHVGHVFRKATPYTFPGGTGQIINKNNRRLAEVWMDEFKNFFYIISPGVTKVDYGDISSRLGLRHKLQCRPFSWYLENIYPDSQIPRHYFSLGEIRNVETNQCLDNMARKENEKVGIFNCHGMGGNQVFSYTANKEIRTDDLCLDVSKLNGPVTMLKCHHLKGNQLWEYDPVKLTLQHVNSNQCLDKATDEDSQVPSIRDCSGSRSQQWLLRNVTLPEIF
modifications: native glycoprotein (peptide N-glycosidase F shifts it by approximately 6 kDa)
[1]
  Vmax/Km: 0.4 M⁻¹ s⁻¹
[2]
  Vmax/Km: 1.2 M⁻¹ s⁻¹
[3]
  Km: 3.3 mM
  Vmax/Km: 183 M⁻¹ s⁻¹
[4]
  Product formed: < 0.1 nmol/min/mg
[5]
  Product formed: 0.6 nmol/min/mg
[6]
  Product formed: < 0.1 nmol/min/mg
[7]
  Product formed: 3.3 nmol/min/mg
[8]
  Product formed: < 0.1 nmol/min/mg
Myelin basic protein
  Product formed: 22.2 nmol/min/mg
[9]
  Product formed: < 0.1 nmol/min/mg
[10]
  Product formed: 0.67 nmol/min/mg
[11]
  Product formed: 2 nmol/min/mg
